Assay results from US20190309079A1 (Regeneron, published 2019).
Residue numbers refer to the chain shown, from its start.

Legend:
[1] = target: T1, LEPR-P316T (signaling-impaired mutant) on HEK293 reporter cells (human, UniProt P48357 22-1165); assay: cell-based or functional assay
T1 sequence: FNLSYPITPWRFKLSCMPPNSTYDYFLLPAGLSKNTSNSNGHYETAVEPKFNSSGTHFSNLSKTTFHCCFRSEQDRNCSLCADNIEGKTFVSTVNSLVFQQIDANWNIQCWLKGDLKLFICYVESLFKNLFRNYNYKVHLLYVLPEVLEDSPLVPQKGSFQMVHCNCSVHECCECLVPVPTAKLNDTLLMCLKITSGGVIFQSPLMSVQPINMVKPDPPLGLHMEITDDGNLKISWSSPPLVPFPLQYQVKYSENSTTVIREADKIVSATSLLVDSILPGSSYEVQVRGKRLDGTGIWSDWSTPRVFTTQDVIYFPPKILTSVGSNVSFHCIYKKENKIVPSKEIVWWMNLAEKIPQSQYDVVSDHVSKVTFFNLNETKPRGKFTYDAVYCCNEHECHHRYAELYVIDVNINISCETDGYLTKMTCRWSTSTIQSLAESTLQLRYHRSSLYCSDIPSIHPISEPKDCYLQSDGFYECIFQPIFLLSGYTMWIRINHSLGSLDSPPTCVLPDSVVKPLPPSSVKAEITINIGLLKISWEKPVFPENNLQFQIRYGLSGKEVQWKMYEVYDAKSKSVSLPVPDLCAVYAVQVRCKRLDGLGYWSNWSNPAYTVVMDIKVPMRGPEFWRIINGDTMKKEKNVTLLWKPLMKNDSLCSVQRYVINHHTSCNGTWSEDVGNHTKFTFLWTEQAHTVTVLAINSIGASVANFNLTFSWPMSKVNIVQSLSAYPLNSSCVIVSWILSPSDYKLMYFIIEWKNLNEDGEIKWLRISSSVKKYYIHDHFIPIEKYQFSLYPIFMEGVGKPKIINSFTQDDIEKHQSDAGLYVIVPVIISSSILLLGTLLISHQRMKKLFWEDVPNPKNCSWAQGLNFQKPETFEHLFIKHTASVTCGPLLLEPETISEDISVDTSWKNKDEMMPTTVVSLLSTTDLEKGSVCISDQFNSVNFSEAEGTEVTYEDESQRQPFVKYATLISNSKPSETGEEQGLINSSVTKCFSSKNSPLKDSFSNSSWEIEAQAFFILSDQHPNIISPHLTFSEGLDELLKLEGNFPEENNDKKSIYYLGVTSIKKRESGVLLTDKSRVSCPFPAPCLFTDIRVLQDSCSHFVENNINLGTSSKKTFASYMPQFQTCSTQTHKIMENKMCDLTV

[2] = target: T2, wild-type LEPR on HEK293 reporter cells (UniProt P48357 22-1165, limits assumed); assay: cell-based or functional assay
T2 sequence (looked up): T1 sequence with T295P

EC50 (read off the curve), pSTAT3 Y705/STAT3 densitometry [1]: ~4e-10 M
EC50 (read off the curve), pSTAT3 Y705/STAT3 densitometry [2]: ~5e-10 M
B1: H4H16650P2 (antibody, V domains shown)
VH: QVQLVESGGGVVQPGKSLRLSCVASGFTFSSDAMYWVRQAPGKGLEWVAVIYYDGNYQYYEDSVKGRFTISRDNSQNTLDLQMNSLRVDDTAVYFCARLNWDYWYLDLWGRGTLVTVSS
VL: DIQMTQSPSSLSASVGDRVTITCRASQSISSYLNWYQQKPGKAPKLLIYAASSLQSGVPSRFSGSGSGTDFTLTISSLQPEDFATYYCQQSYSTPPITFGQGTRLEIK
